Measurements from patent publication US20030082173A1 (ST JUDE CHILDREN S RESEARCH HOSPITAL, published 2003).

Target: T1, calcium-signal modulating cyclophilin ligand (CAML), human, full length (human, UniProt P49069 1-296)
T1 construct: mature; In the co-immunoprecipitation it was expressed from pBJ5 in 293T cells
T1 sequence (looked up): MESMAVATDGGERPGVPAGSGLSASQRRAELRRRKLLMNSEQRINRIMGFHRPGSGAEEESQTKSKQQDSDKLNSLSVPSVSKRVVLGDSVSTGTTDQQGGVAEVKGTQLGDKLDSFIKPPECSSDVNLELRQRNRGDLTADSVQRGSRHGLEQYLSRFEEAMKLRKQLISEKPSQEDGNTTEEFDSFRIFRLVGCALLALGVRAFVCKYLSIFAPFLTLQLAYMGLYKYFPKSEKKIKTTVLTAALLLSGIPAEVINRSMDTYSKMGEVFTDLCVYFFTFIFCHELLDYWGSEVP
Assay: yeast two-hybrid screen of a human B-lymphocyte cDNA library with full-length CAML as bait

B1: Transmembrane Activator and CAML-Interactor protein TACI-1 (human, full length, 293 amino acids) (receptor)
chain: MSGLGRSRRGGRSRVDQEERFPQGLWTGVAMRSCPEEQYWDPLLGTCMSCKTICNHQSQRTCAAFCRSLSCRKEQGKFYDHLLRDCISCASICGQHPKQCAYFCENKLRSPVNLPPELRRQRSGEVENNSDNSGRYQGLEHRGSEASPALPGLKLSADQVALVYSTLGLCLCAVLCCFLVAVACFLKKRGDPCSCQPRSRPRQSPAKSSQDHAMEAGSPVSTSPEPVETCSFCFPECRAPTQESAVTPGTPDPTCAGRWGCHTRTTVLQPCPHIPDSGLGIVCVPAQEGGPGA
notes: Untagged full-length protein expressed from pBJ5 on TAg Jurkat T cells for flow cytometry and reporter assays; In the yeast two-hybrid tests it was fused to a GAL4 domain (pACT or pAS1); also called TACI protein; TCB
Q: Does B1 bind?
A: Result: binds
